In patent publication US20050271676A1, “Inducing cellular immune responses to human immunodeficiency virus-1 using peptide and nucleic acid compositions” (Epimmune Inc., priority 1993, published 2005):

Tests used:
[1] = biological target: HLA-A*1101 (Homo sapiens, UniProt P04439, A114D/D185E/E176A/F33Y/L180Q/S129P/T187R); assay: purified HLA class I binding assay, A*1101; conditions: for A*1101 (HIV A11 Motif Peptides with Binding Information): binding value to purified HLA-A*1101 in Table XVII; for A*1101 binding: HIV A11 motif peptides (GAG)
[2] = biological target: T1, HLA-B*0702 (Homo sapiens, UniProt P01889); assay: purified HLA class I binding assay, B*0702; conditions: for B*0702 binding (HIV B07 Super Motif Peptides with Binding Information): purified HLA-B*0702, binding value without unit; for B*0702 (binding information): HIV B07 supermotif peptides, binding value for purified HLA-B*0702, unit not given
T1 construct: endogenous in cells; host or cells: GM3107

[3] = biological target: T2, HLA-A*0301 (Homo sapiens, UniProt P04439); assay: purified HLA class I binding assay, A*0301; conditions: for A*0301 binding information: HIV A03 supermotif peptides; for A0301 (binding information): HIV A03 motif peptides; for A0301 (binding information) / A0301 (binding information, HIV A03 motif peptides): Table XVI
T2 construct: endogenous in cells; host or cells: GM3107

[4] = biological target: HLA-A*0201 (Homo sapiens, UniProt P04439, D140Y/D185E/D98H/E176V/E277Q/G131W/G231S/I119V/I121R/I166T/I218V/L300P/L318F/N151K/N90K/P208A/P217A/Q86G/Q94H/R138H/R169H/T345S); assay: purified HLA class I binding assay, A*0201; conditions: Table VIII, unit not given
[5] = binding value to purified HLA-A*0301, unit not given
[6] = HIV A02 Super Motif Peptides with Binding Information
[7] = HIV POL-derived peptides, unit not given
[8] = Table XVII, HIV A11 motif peptides, binding value A*1101, unit not given
[9] = HIV POL-derived A03 motif peptides, binding value for purified HLA-A*0301, unit not given

AANREIKLGK
A*1101 (HIV A11 Motif Peptides with Binding Information) ([1]; unit not given): 0.0016

ANRIETKLGK
A*1101 (HIV A11 Motif Peptides with Binding Information) ([1]; unit not given): 0.0001

APTKAKRRVV
B*0702 binding (HIV B07 Super Motif Peptides with Binding Information) [2]: 0.1200

ATLYCVIIQR
A*0301 binding information ([3]; Table IX, unit not given): 0.0150
A0301 (HIV A03 Motif Peptides with Binding Information) [3, 5]: 0.0150
A*1101 (binding information) ([1]; HIV A03 supermotif peptides, Table IX, unit not given): 0.7100
A*1101 binding ([1]; Table XVII, unit not given): 0.7100

ATWIPCWEFV
A*0201 (binding information) ([4]; HIV A02 supermotif peptides): 0.0013

AVDLSIIFLK
A0301 (binding information) [3, 5]: 0.0740
A*1101 (binding information) ([1]; HIV A11 motif peptides, Table XVII, unit not given): 1.1000

CVKLTPLCV
A*0201 (binding information) [4, 6]: 0.0002

CVKLTPLCVT
A*0201 (binding information) ([4]; HIV A02 super motif peptides): 0.0001

DPEIVMIISF
B*0702 binding (HIV B07 Super Motif Peptides with Binding Information) [2]: 0.0001

DTEVIINVWA
A*0201 (binding information) [4, 6]: 0.0001

DTEYIINVWAT
A*0201 (binding information) ([4]; HIV A02 super motif peptides): 0.0001

DVKQLTEAVQ
A0301 (binding information, HIV A03 motif peptides) [3, 7]: 0.0048
A*1101 (HIV A11 Motif Peptides with Binding Information) ([1]; unit not given): 0.0240

EILKEPVIIGV
A*0201 (binding information) ([4]; HIV A02 supermotif peptides): 0.0007

ELQAIIILAL
A*0201 (binding information) ([4]; HIV A02 super motif peptides): 0.0001

EPFKNLKTGK
B*0702 (binding information) [2]: 0.0001

EPFRDYVDRP
B*0702 binding (HIV B07 Super Motif Peptides with Binding Information) [2]: 0.00012

EPFREYVIIRF
B*0702 binding (HIV B07 Super Motif Peptides with Binding Information) [2]: 0.0001

EPIPIIIYCA
B*0702 binding (HIV B07 Super Motif Peptides with Binding Information) [2]: 0.0001

EPIVGAEIP
B*0702 (binding information) [2]: 0.0001

EPPFLWMGYE
B*0702 (binding information) [2]: 0.0001

EPVDPRLEPW
B*0702 (binding information) [2]: 0.0001

EPVIIGVYY
B*0702 binding (HIV B07 Super Motif Peptides with Binding Information) [2]: 0.0001

EVIINVWATIIA
A*0201 (binding information) ([4]; HIV A02 super motif peptides): 0.0001

FLGKIWPSIIK
A0301 (binding information) ([3]; binding value unit not given): 0.0200
A*1101 binding ([1]; Table XVII, unit not given): 0.0013

FVNIPPLVK
A*1101 (binding information) [1, 8]: 0.0660

GIIQAQVDK
A0301 (binding information, HIV A03 motif peptides) [3, 7]: 0.0009

GIPIIPAGLK
A*1101 (binding information) [1, 8]: 0.0650

GIPIIPAGLKK
A0301 (HIV A03 Motif Peptides with Binding Information) [3, 9]: 0.0110
A*1101 (binding information) [1, 8]: 0.1700

GIRYQYNYL
A*0201 (binding information) ([4]; HIV A02 super motif peptides): 0.0001

GPAATLEEMM
B*0702 binding (HIV B07 Super Motif Peptides with Binding Information) [2]: 0.0020

GPGIIKARV
B*0702 binding (HIV B07 Super Motif Peptides with Binding Information) [2]: 0.0002

GPGIIKARVLA
B*0702 binding (HIV B07 Super Motif Peptides with Binding Information) [2]: 0.0002

GPKVKQWPL
B*0702 (binding information) [2]: 0.0150

HPAGLKKKKS
B*0702 (binding information) [2]: 0.0001

HPVIIAGPI
B*0702 binding (HIV B07 Super Motif Peptides with Binding Information) [2]: 0.0012

IIGVYYDPSK
A*1101 (binding information) [1, 8]: 0.0001

IILALQDSGL
A*0201 (binding information) ([4]; HIV A02 super motif peptides): 0.0005

IILKTAVQMAV
A*0201 (binding information) ([4]; HIV A02 supermotif peptides): 0.0005

IIPDKWTVQPI
B*0702 (binding information) [2]: 0.0012

IIPGSQPKTA
B*0702 (binding information) [2]: 0.0007

IIPRISSEVHI
B*0702 (binding information) [2]: 0.0330

IIPVIIAGPIA
B*0702 binding (HIV B07 Super Motif Peptides with Binding Information) [2]: 0.0590

IIVASGYIEA
A0301 (HIV A03 Motif Peptides with Binding Information) [3, 9]: 0.0003

ILKEPVIIGV
A*0201 (binding information) ([4]; HIV A02 super motif peptides): 0.0055

ILQQLLFIIIF
A0301 (binding information, HIV A03 motif peptides) ([3]; binding value for HLA-A*0301, unit not given): 0.0130

IPIIIYCAPA
B*0702 binding (HIV B07 Super Motif Peptides with Binding Information) [2]: 0.0130

IPMFSALSIEGA
B*0702 binding (HIV B07 Super Motif Peptides with Binding Information) [2]: 0.0004

IPVGEIYKRW
B*0702 binding (HIV B07 Super Motif Peptides with Binding Information) [2]: 0.0002

ISPILTVPVK
A*1101 (binding information) [1, 8]: 0.0310

IVASCDKCQL
A*0201 (binding information) ([4]; HIV A02 supermotif peptides): 0.0006

IVASCDKCQLK
A*0301 binding information ([3]; binding value, no unit given): 0.0970
A0301 (HIV A03 Motif Peptides with Binding Information) [3, 9]: 0.0970
A*1101 (binding information) ([1]; HIV A03 supermotif peptides, binding value, no unit given): 0.1000
A*1101 (binding information) [1, 8]: 0.1000
